Substitutions are numbered along the chain they refer to.
Experiments:
[1] = target: T1, recombinant, soluble human ASGR-1 (human, UniProt P07306 62-291); assay: Octet BLI dissociation, pH 5.6 minus calcium
T1 construct: biotinylated in the binning assay; also called soluble huASGR-1; Soluble ASGR-1 (Amgen)
T1 sequence: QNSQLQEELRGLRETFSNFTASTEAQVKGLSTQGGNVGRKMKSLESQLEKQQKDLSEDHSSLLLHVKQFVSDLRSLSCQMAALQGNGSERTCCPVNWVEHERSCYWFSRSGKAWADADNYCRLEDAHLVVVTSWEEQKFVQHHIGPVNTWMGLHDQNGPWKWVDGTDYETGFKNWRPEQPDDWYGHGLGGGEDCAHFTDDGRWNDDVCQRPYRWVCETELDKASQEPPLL
In short: (§1)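 Antibodies were captured on anti-human Fc biosensors, and soluble ASGR-1 (6 ug/ml) was associated for 2 min in Tris buffer containing 1 mM CaCl2 at pH 7.4, followed by 10 min dissociation under each test condition. The signal at the end of association was set as 100%. Percent ASGR-1 still bound after 1 min of dissociation was compared with the pH 7.4 plus calcium control, and >10% extra dissociation was scored as sensitive.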

[2] = target: T1, recombinant, soluble human ASGR-1; assay: Octet BLI dissociation, pH 5.6 plus calcium
In short: as §1

[3] = target: T1, recombinant, soluble human ASGR-1; assay: Octet BLI dissociation, pH 7.4 minus calcium
In short: as §1

B1: 65C12 (antibody, V domains shown)
VH: EVQLVESGGGLVKPGGSLRLSCAASGFTFRSFSLNWVRQAPGKGLEWVSSISSSSSYIYYADSVKGRFTISRDNAKNSLYLQMNSLRAEDTAVYYCARDAYSHYWGQGTLVTVSS
VL: EIVMTQSPATLSVFPGEGATLSCRASQSVSINLAWYQQKPGQAPRLLIYGASTRATGIPARFNASGSGTEFTLSISSLQSENFAVYYCQQYNTWPLTFGGGTKVEIK
notes: hybridoma mAb
[1]
  % Change Compared to pH 7.4 + Calcium: 23%
[2]
  % Change Compared to pH 7.4 + Calcium: 0%
[3]
  % Change Compared to pH 7.4 + Calcium: 13%

B2: 52D10 (antibody, V domains shown)
VH: QVQLVESGGGVVQPGRSLRLSCAASGFTFSSYGMHWVRQAPGKGLEWVALIWYDGSNKYHADSVKGRFTISRDNSKNTLYLQMNSLRAEDTAVYYCARRYSSSWSGGMDVWGQGTTVTVSS
VL: DVMMTQIPLSLSVTPGQPASISCKSSQSLLHSEGKTYLYWYLQKPGQPPQLLIFEVSNRVSGVPDRFSGRGSGTDFTLKISRVEAEDVGVYYCMQSIQYPITFGQGTRLEIK
notes: hybridoma mAb
[1]
  % Change Compared to pH 7.4 + Calcium: 45%
[2]
  % Change Compared to pH 7.4 + Calcium: 3%
[3]
  % Change Compared to pH 7.4 + Calcium: 21%

B3: 193E7 (antibody, V domains shown)
VH: QVQLQQWGAGLLKPSETLSLTCAVYGGSFSGYFWTWIRQPPGKGLEWIGEINHSGSTNYNPSLKSRVTISVDTSKNQFSLKLSSVTAADTAVYYCARDYGADYWGQGTLVAVSA
VL: DIQMTQSPSSLSASVGDRVTITCRASQGIRNDLGWYQQKPGKAPKRLIYSASSLQRGVPSRFSGSGSGTEFTLTISSLQPEDFATYYCLQHKRYPLTFGGGTKVEIK
notes: hybridoma mAb
[1]
  % Change Compared to pH 7.4 + Calcium: -4%
[2]
  % Change Compared to pH 7.4 + Calcium: -9%
[3]
  % Change Compared to pH 7.4 + Calcium: -9%

B4: 199E3 (antibody, V domains shown)
VH: B3 VH
VL: B3 VL with Y49S
notes: hybridoma mAb
[1]
  % Change Compared to pH 7.4 + Calcium: -4%
[2]
  % Change Compared to pH 7.4 + Calcium: -4%
[3]
  % Change Compared to pH 7.4 + Calcium: -5%

B5: 194C10 (antibody, V domains shown)
VH: QVQLQQWGAGLLKPSETLSLTCAVSGGSFRYYYWSWIRQPPGKGLEWFGEINHSGSTNYNPSLKSRVTISIDTSKNQFSLKLRSVTAADTAVYYCARDYGAFDIWGQGTMVTVSS
VL: EIVLTQSPGTLSLSPGERATLSCRASPSVNSGYLAWYQQKPGQTPRLLIFGASSRATGIPDRFSASGSGADFTLTISRLEPEDFAVYFCQQYESSPWTFGQGTKVEIK
notes: hybridoma mAb
[1]
  % Change Compared to pH 7.4 + Calcium: 16%
[2]
  % Change Compared to pH 7.4 + Calcium: 10%
[3]
  % Change Compared to pH 7.4 + Calcium: 2%

B6: 202A3 (antibody, V domains shown)
VH: QVQLEQSGAEVKKPGASVKVSCKASGYTFTSYDINWVRQATGQGLEWLGWMNPKRGNTGYAQKFQGRVTMTRNTSISTAHMELSSLRSEDTAVYYCARGRYSREDYYYYYDMDVWGQGTTVTVSS
VL: DIQMSQSPSSLSASVGDRVTITCRASQGIRNDLGWYQQKPGKAPKRLICAASRLQSGVPSRFSGSGSGTEFTLTISSLQPEDFAIYYCLQHHDYPFTFGPGTKVDIK
notes: hybridoma mAb
[1]
  % Change Compared to pH 7.4 + Calcium: -23%
[2]
  % Change Compared to pH 7.4 + Calcium: -22%
[3]
  % Change Compared to pH 7.4 + Calcium: -21%

B7: 226F9 (antibody, V domains shown)
VH: QVQLVQSGAEVKKPGASVKVSCKASGYTFTGYYIHWVRQAPGQGLEWMGWINPYSGDTKYAQKFQGRVTMTRATSISTAYMELSRLRFDDTAVFYCARDWGGYSSYYYGMDVWGQGTTVTVSS
VL: DIVMTQTPLSLSVTPGQPASISCKSSQSLLHSDGKTFLYWYLQKPGQPPQLLIYEISNRFSGVPDRFSGSGSGTDFTLKISRVEAEDVGIYYCMQSTQLPRTFGQGTKVEIK
notes: hybridoma mAb
[1]
  % Change Compared to pH 7.4 + Calcium: 77%
[2]
  % Change Compared to pH 7.4 + Calcium: 51%
[3]
  % Change Compared to pH 7.4 + Calcium: 100%

B8: 176H4 (antibody, V domains shown)
VH: QVQLVESGGGVVQPGRSLRLSCAASGFTFSSYGMHWVRQAPGKGLEWVAIIWYDGSYKYYADSVKGRFTISRDNSKNTLYLQMSSLRAEDTAVYYCARDAHDFWSGYFAYWGQGALVTVSS
VL: B7 VL with S32G, F37Y, I56V, T97I, L99I, R101W, K108R
notes: hybridoma mAb
[1]
  % Change Compared to pH 7.4 + Calcium: 26%
[2]
  % Change Compared to pH 7.4 + Calcium: -4%
[3]
  % Change Compared to pH 7.4 + Calcium: 2%

B9: 227F2 (antibody, V domains shown)
VH: B7 VH with Q3H, A73D
VL: B7 VL
notes: hybridoma mAb
[1]
  % Change Compared to pH 7.4 + Calcium: 100%
[2]
  % Change Compared to pH 7.4 + Calcium: 50%
[3]
  % Change Compared to pH 7.4 + Calcium: 80%

B10: 227C1 (antibody, V domains shown)
VH: B7 VH with I34T, D57G, K59N, A73D, F94Y
VL: B7 VL
notes: hybridoma mAb
[1]
  % Change Compared to pH 7.4 + Calcium: 73%
[2]
  % Change Compared to pH 7.4 + Calcium: 54%
[3]
  % Change Compared to pH 7.4 + Calcium: 100%

B11: 224G1 (antibody, V domains shown)
VH: B7 VH with K59N, A73D
VL: B7 VL with S26G, Y39S, Y91F
notes: hybridoma mAb
[1]
  % Change Compared to pH 7.4 + Calcium: 65%
[2]
  % Change Compared to pH 7.4 + Calcium: 41%
[3]
  % Change Compared to pH 7.4 + Calcium: 77%

B12: 172B12 (antibody, V domains shown)
VH: QVQLVQSGAEVKKPGASVTVSCKASGYTFRSYYMYWVRQAPGQGLEWVGTINPSGGSTDYAQKFQGRVTMTRDTSTSTLYMELNSLRSEDTAVYYCASGWELNYWGQGTLVTVSS
VL: SSELTQDPAVSVALGQTVRITCQGDSLRNYYASWYQQKPGQAPILVIYTKNSRPSGIPDRFSGSTSGNTASLTITGAQAEDEADYYCNSRDSSGNHVVFGGGTKLTVL
notes: hybridoma mAb
[1]
  % Change Compared to pH 7.4 + Calcium: -13%
[2]
  % Change Compared to pH 7.4 + Calcium: -27%
[3]
  % Change Compared to pH 7.4 + Calcium: -14%

B13: 172C3 (antibody, V domains shown)
VH: B12 VH with T19K, D59N
VL: B12 VL with A32V, A77T
notes: hybridoma mAb
[1]
  % Change Compared to pH 7.4 + Calcium: 0%
[2]
  % Change Compared to pH 7.4 + Calcium: -26%
[3]
  % Change Compared to pH 7.4 + Calcium: -9%

B14: 196F4 (antibody, V domains shown)
VH: EVQLLESGGGLVQPGGSLRFSCAASGFTFSSCAMTWVRQAPGKGLEWVSAISGSGGSTYYADSVKGRFTISRDNSKNTLYLQMNSLRAEDTAVYYCAKVGGLTGSYYYYGMDVWGQGTTVTVSS
VL: DFQMIQSPSSLSASVGDRVTITCRASQRIHSYLNWYQQKPGKAPKLLIYTASSLQGGVPSRFSGSGSGTDFTLTISSLQPEDFATYYCQQSYGSPLTFGGGTKVEIK
notes: hybridoma mAb
[1]
  % Change Compared to pH 7.4 + Calcium: -6%
[2]
  % Change Compared to pH 7.4 + Calcium: -5%
[3]
  % Change Compared to pH 7.4 + Calcium: -8%

B15: 198D2 (antibody, V domains shown)
VH: QVQLVESGGGVVQPGRSLRLSCAASGFTFRSYGMHWVRQAPGKGLEWVAVIIYDGSYKYYADSVKGRFTISRDNSKNTLYLQMNSLRAEDTAVYYCARTYSGGMDVWGQGTTVTVSS
VL: QSVLTQPPSVSAAPGQKVTISCSGSSSNIGSNYVSWYQQLPGTAPKVLIYDNNKRPSGIPDRFSGSKSGTSATLGITGLQTGDEADYYCGTWDSRLNVGVFGGGTKLTVL
notes: hybridoma mAb
[1]
  % Change Compared to pH 7.4 + Calcium: -28%
[2]
  % Change Compared to pH 7.4 + Calcium: -30%
[3]
  % Change Compared to pH 7.4 + Calcium: -8%

Reference: US20190248902A1 (published 2019)
